From patent US20040005554A1

What was measured:
[1] = biological target: ARP-GFP fusion protein (human ARP, Leu form from pBSSKII ARP.4, fused to EGFP of pEGFP-N2) (human); assay: anti-GFP plate capture, detection with anti-FLAG M2 and anti-mouse IgG-AP; unconcentrated medium of cotransfection
[2] = biological target: ARP-GFP fusion protein (human ARP, Leu form from pBSSKII ARP.4, fused to EGFP of pEGFP-N2) (human); assay: anti-GFP plate capture, detection with anti-FLAG M2 and anti-mouse IgG-AP; concentrated medium of cotransfection

Chain of FLAG-BRP fusion protein (N-terminal FLAG tag on predicted mature human BRP, secreted through the mouse preprotrypsin signal) (Q86YW7 other isoform, or with tags, fused parts or gaps limits assumed): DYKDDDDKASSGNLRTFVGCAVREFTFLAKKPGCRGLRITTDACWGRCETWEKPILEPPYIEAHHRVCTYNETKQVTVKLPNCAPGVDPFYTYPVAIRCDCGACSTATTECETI

Abs 405 nm [1]: 0.972 Abs 405 nm
Abs 405 nm [2]: 1.41 Abs 405 nm
Substance: FLAG-BRP fusion protein (N-terminal FLAG tag on predicted mature human BRP, secreted through the mouse preprotrypsin signal) (from UniProt Q86YW7 25-130)
